{
  "source": "patent US20150056210A1",
  "about": "(ROTTAPHARM BIOTECH S R L, published 2015)",
  "binders": {"B1": {"name": "CRB0017_IgG4 (antibody, V domains shown)", "VH": "QVQLQQSGAELAKPGASVKMSCKASGYTFTSYWMHWVKQRPGQGLEWIGYINPSTGYTEYNQKFKDKATLTADKSSSTAYMQLGSLTSEDSAVYYCARGGYDDLGYWGQGTTLTVSS", "VL": "DIVITQDELSNPVTSGESVSISCRSSKSLLYKDGKTYLYWFLQRPGQSPQLPIYLMSTRASGVSDRFSGSGSGTDFTLEISRVKAEDVGVYYCQQLVEYPYTFGGGTKLEIK", "notes": "Chimeric IgG: murine variable domains on human constant domains (Fc from human IgG4, kappa light chain), made in CHO-S cells; also called mAb CRB0017; CRB017 IgG4"}, "B2": {"name": "CRB0018 scFv (scFv)", "scFv": "DIVMTQSPASLAVSQGQRATISCRASESVDSYGNSFMHWYQQKPGQPPKLPIYLASNLESGVPARFSGSGSRTDFTLTIDPVEADDAATYYCQQNNEELTFGAGTKLELKRSGGSTSGSGKPGSSEGSSGTEVKLLESGGGLVQPGGSLKLSCTTSGFDFSRYWMSWVRQAPGKGLEWIGEINPDSSTINYTPSLKDKFIISRDNAKNTLYLQMSKVRSEDTALYYCARRSYWYFDVWGAGTSVTVSS", "notes": "VP16 fusion in the yeast selection; also called clone 7A (mSPLINT)"}, "B3": {"name": "CRB0091 scFv (scFv)", "scFv": "DIVMTQSPSSLSASVGDRVTITCRASQAIGNDLAWYQQRPGKAPKRLIYGASTLSSGVPSRFSGSGSGTEFTLTISSLQPDDFATYYCQQYNNFPYTFGLGTKVEIKSGGSTSGSGKPGSGEGSSGTQVQLQQWGAGLLKPSETLSLTCAVHGGSFSGNFWSWVRQHPGKGLEWIGEVNHRGSATYNPSLKSRVTMSVDTSKNQFSLQLSSVTAADTAVYYCARKLPRRRAEDRPSSLRPFDYWGQGTLVTVSS", "notes": "VP16 fusion in the yeast selection; also called clone 7A (huSPLINT_09)"}, "B4": {"name": "CRB0124 scFv (scFv)", "scFv": "QVQLVQSGSDVKKPGASVRVSCKVSGYRLTEYPIHWVRQAPGKGLEYMGGFDLENGVTKAAPRFRGRFTMTEDTSTDSVYMELKSLTSEDTAVYYCVKGPGYGALVTSFTSWGLGTTVTVSSSGGSTSGSGKPGSGEGSSGTSYVLTQPPSVSVSPGQTASITCSGDKLEDKYACWYQQKPGQSPVLVIYHDYKRPSGIPERFSGSNSGNTATLTISRVEGGDEADYYCQVWDSGSDDQVFGGGTKLTVL", "notes": "VP16 fusion in the yeast selection; also called clone S53a"}, "B5": {"name": "CRB0019 scFv (scFv)", "scFv": "DIVMTQSHKFMSTSEGDRVSITCKASQDVGTAVAWYQQKPGQSPKLLIYWASTRHTGVPDRFTGSGSGTDFTLTISNVQSEDLADYICQQYCSHPYTFGAGTKLEIKRSGGSTSGSGKPGSGEGSRGTQVQLQQSGAEPVKPGASVKLSCTASGFNIKDTYMHWVKQRPEQGLEWIGRIDPAHGRTKYDPKFQGKATITADTSSNTAYLQLSSLSSEDTAVYYCAFYSYAIDYWGQGTSVTVSS", "notes": "VP16 fusion in the yeast selection; also called clone 14"}, "B6": {"name": "CRB0122 scFv (scFv)", "scFv": "QVQLQESGGGLVRPGGSLRLSCAASGFTFSSYAMTWVRQAPGKGLEWVSAISGSGDSTYYADSVKGRFTISRDNSKNTLYLQMDSLRVEDTAVYYCARDRDLLHKDGFDIWGQGTMVTVSSSGGSTSGSGKPGSGEGSSGTQSVLTQPPSASASLGASVTLTCTLSSGYSNYKVDWYQQTPGKGPRFVMRVGTGGTVGSKGDGIPDRFSVLGSGLNRYLIIKNIQEEDETDYHCGADHGSGSNFVYVFGSGTKVTVL", "notes": "VP16 fusion in the yeast selection; also called clone S39"}, "B7": {"name": "CRB0092 scFv (scFv)", "scFv": "QSVVTQPPSVSGAPGQRVTISCTGSSSNIGAGYDVHWYQQLPGTAPKLLIYGNDNRPSGVPDRFSGSKSGTSASLAITGLQAEDEADYYCQSYDNSLSGYAVFGGGTQLTVLSGGSTSGSGKPGSGEGSSGTQVQLVESGGGLVQPGGSLRLSCAASGFRFSSHDMHWVRQVPGKGLEWVSRIGTVGDTYYADSVKGRFTISRDNSKNTLFLQMNSLGAEDTAVYYCARDGTRYCSRTSCHSGYYYYGMDVWGQGTTVTVSS", "notes": "VP16 fusion in the yeast selection; also called clone C21"}, "B8": {"name": "CRB0123 scFv (scFv)", "scFv": "QVQLQESGGGVVQPGRSLRLSCAASGFTFSGYGMNWVRQAPGTGLEWVATISFDGTDKYYADSVKGRFTISRDNAENTLYLQMNSLRAEDMAVYYCARDWSYAMDVWGQGTMVTVSSSGGSTSGSGKPGSGEGSSGTDIQMTQSPSSVSASVGDRVTITCRPSQGIGKYSAWYQQKPGKAPELPIYLASTLQSGVPSRFSDSGSGTEFTLTISSLQPEDFATYYCLQRNTYPWTFGQGTKVEIK", "notes": "VP16 fusion in the yeast selection; also called clone S50"}, "B9": {"name": "CRB0094 scFv (scFv)", "scFv": "QSVLTQPPSASGSPGQSVTISCTGTSSDVGGYNYVSWYQQHPGKAPKLLIYDVSNRPSGVSSRFSGSKSGNSASLTISGLQAEDEADYYCSSYTRRSTLEFGGGTKLTVLSGGSTSGSGKPGSGEGSSGTQVQLQQWGAGLLKPSGTLSLTCAVYGGSFSGYYWSWIRQPPGKGLEWIGEINHSGSTNYNPSLKSRVTISVDTSKNQFSLKLSSVTAADTAVYYCARTIWSTRHDFWSGYYSSNWFDPWGQGTLVTVSS", "notes": "VP16 fusion in the yeast selection; also called clone 48B"}, "B10": {"name": "CRB0102 scFv (scFv)", "scFv": "EVQLVESGSDVKKPGASVRVSCKVSGYRLTEYPIHWVRQAPGKGLEYMGGFDLENGVTKAAPRFRGRFTMTEDTSTDSVYMELKSLTSEDTAVYYCVKGPGYGALVTSFTSWGLGTLVTVSSSGGSTSGSGKPGSGEGSSGTETTLTQSPAFMSATPGDKIYISCKASQDIDDDMNWYQQKPGEAAIFIIQEATTLVPGIPPRFSGSGYGTDFTLTINNMESEDAAYYFCPQQDNVPLTFGGGTKVDIK", "notes": "VP16 fusion in the yeast selection; also called clone 15A"}, "B11": {"name": "CRB0017 scFv (scFv)", "scFv": "DIVITQDELSNPVTSGESVSISCRSSKSLLYKDGKTYLYWFLQRPGQSPQLPIYLMSTRASGVSDRFSGSGSGTDFTLEISRVKAEDVGVYYCQQLVEYPYTFGGGTKLEIKRSGGSTRGSGKPGSGEGSSGTQVQLQQSGAELAKPGASVKMSCKASGYTFTSYWMHWVKQRPGQGLEWIGYINPSTGYTEYNQKFKDKATLTADKSSSTAYMQLGSLTSEDSAVYYCARGGYDDLGYWGQGTTLTVSS", "notes": "detected in ELISA with an anti-V5 antibody, tag not described; also called clone M6"}, "B12": {"name": "CRB0123_IgG4 (antibody, V domains shown)", "VH": "QVQLQESGGGVVQPGRSLRLSCAASGFTFSGYGMNWVRQAPGTGLEWVATISFDGTDKYYADSVKGRFTISRDNAENTLYLQMNSLRAEDMAVYYCARDWSYAMDVWGQGTMVTVSS", "VL": "DIQMTQSPSSVSASVGDRVTITCRPSQGIGKYSAWYQQKPGKAPELPIYLASTLQSGVPSRFSDSGSGTEFTLTISSLQPEDFATYYCLQRNTYPWTFGQGTKVEIK", "notes": "also called mAb CRB0123; monoclonal antibody CRB0123"}, "B13": {"name": "monoclonal antibody CRB0102 (antibody, V domains shown)", "VH": "EVQLVESGSDVKKPGASVRVSCKVSGYRLTEYPIHWVRQAPGKGLEYMGGFDLENGVTKAAPRFRGRFTMTEDTSTDSVYMELKSLTSEDTAVYYCVKGPGYGALVTSFTSWGLGTLVTVSS", "VL": "ETTLTQSPAFMSATPGDKIYISCKASQDIDDDMNWYQQKPGEAAIFIIQEATTLVPGIPPRFSGSGYGTDFTLTINNMESEDAAYYFCPQQDNVPLTFGGGTKVDIK", "notes": "also called CRB0102 IgG4"}},
  "data": [
    {"molecular_target": "T1, Spacer-GST (human)", "T1 construct": "also called recombinant Spacer-ADAMTS-5-GST protein", "T1 sequence (chain, as listed by the source limits assumed)": "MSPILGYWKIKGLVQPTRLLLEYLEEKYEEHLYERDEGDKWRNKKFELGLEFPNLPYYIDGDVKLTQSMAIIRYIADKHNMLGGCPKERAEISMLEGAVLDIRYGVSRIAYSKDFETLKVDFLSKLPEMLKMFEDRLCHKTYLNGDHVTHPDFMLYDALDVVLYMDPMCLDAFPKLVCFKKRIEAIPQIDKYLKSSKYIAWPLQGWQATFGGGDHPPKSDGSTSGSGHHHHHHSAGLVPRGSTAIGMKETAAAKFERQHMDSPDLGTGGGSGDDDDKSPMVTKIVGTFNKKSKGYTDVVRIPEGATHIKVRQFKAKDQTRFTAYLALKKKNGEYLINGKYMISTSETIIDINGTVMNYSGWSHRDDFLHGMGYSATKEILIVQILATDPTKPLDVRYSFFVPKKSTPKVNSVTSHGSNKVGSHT", "experiment": "SPR (Biacore X-100), CRB0017_IgG4 immobilised on CM5 chip, Spacer-GST in solution, KD1", "units": {"Kd": "nM"}, "values": [
      {"binder": "B1", "Kd": "~2"}
    ]},
    {"molecular_target": "T1, Spacer-GST", "experiment": "ELISA, Spacer-GST coated at 10 µg/mL, scFv in solution, anti-V5 detection", "protocol": "FIG. 3. ELISA reactivity of isolated anti-Sp_ADAMTS-5 scFvs with Spacer-GST and GST negative control. Spacer-GST and GST antigens were coated at 10 μg/mL. […] The mean absorbance at 450 nm of the experiments performed in duplicate wells is shown with SD indicated by the bars.\nNunc Maxi-Sorp Immunoplate was coated with […] Sp_ADAMTS-5-GST and GST at 10 μg/mL in coating buffer (100 mM Na₂CO₃ pH 9.6). Plate was incubated overnight at 4° C. next day, the unbound antigens were discarded and plate was washed 3× with PBS. Non-specific binding was blocked by adding […] of 3% MPBS (3% fat free milk in PBS). Plate was incubated for 1 h at RT. Plate was washed 3×TPBS (0.1% Tween20 in PBS) and 3×PBS. 100 μL of serial dilution of anti-Sp_ADAMTS-5scFv (0.5-50 μg/mL) in 3% MPBS was added to appropriate wells. Then plate was incubated for 2 h at RT. After washing with 3×TPBS and 3×PBS, 100 μL of anti-V5 antibody (Invitrogen) diluted 1:5000 in 3% MPBS was added to each well. Plate was incubated for 1 h and 30 min at RT. After washing with 3×TPBS and 3×PBS 100 μL of anti-mouse HRP (DAKO) diluted 1:2000 in 3% MPBS was added to each well. Plate was incubated for 1 h at RT. After washing with 3×TPBS and 3×PBS 80 μL of TMB (Sigma) was added. Plate was incubated in dark chamber until samples reach the desired signal. 80 μL of stopping solution (500 mM H₂SO₄) was added to each well before reading. Data were collected measuring OD(450 nm) by LD 400 Luminescence Detector (Beckman Coulter).", "values": [
      {"binder": "B2", "binding result": "binds"},
      {"binder": "B3", "binding result": "binds"},
      {"binder": "B4", "binding result": "binds"},
      {"binder": "B5", "binding result": "binds"},
      {"binder": "B6", "binding result": "binds"},
      {"binder": "B7", "binding result": "binds"},
      {"binder": "B8", "binding result": "binds"},
      {"binder": "B9", "binding result": "binds"},
      {"binder": "B10", "binding result": "binds"},
      {"binder": "B11", "binding result": "binds"}
    ]},
    {"molecular_target": "T1, Spacer-GST", "experiment": "sandwich ELISA with Spacer-GST, data not shown", "values": [
      {"binder": "B12", "binding result": "binds"},
      {"binder": "B13", "binding result": "binds"}
    ]},
    {"molecular_target": "T1, Spacer-GST", "experiment": "SPR (Biacore), Spacer-GST immobilised, CRB0017_IgG4 in solution, bivalent binding model, KD2, data not shown", "units": {"Kd": "nM"}, "values": [
      {"binder": "B1", "Kd": 7}
    ]}
  ]
}
